Assay results: patent US20190201496A1 (BRIGHAM AND WOMEN S HOSPITAL, published 2019)

Molecular target: neonatal Fc receptor (FcRn) (UniProt P55899 24-297, limits assumed)
Assay: comparison of observed KD values; the assay for FcRn is not described here

Chain of neonatal Fc receptor (FcRn) (P55899 24-297 limits assumed, form in doubt, chain 1 of 2): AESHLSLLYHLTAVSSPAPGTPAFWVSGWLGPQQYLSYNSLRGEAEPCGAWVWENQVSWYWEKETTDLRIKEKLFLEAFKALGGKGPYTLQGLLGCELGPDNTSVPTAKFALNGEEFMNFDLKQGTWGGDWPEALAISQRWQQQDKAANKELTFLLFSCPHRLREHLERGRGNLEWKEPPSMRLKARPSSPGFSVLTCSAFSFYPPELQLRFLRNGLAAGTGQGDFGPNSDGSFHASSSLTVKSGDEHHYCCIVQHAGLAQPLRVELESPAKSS
Chain of neonatal Fc receptor (FcRn) (chain, as listed by the source limits assumed, form in doubt, chain 2 of 2): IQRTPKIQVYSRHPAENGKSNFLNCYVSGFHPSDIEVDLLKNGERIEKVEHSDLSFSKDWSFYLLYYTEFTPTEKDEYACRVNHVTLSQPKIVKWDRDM

B1: human alpha-fetoprotein (AFP) (ligand)
chain: RTLHRNEYGIASILDSYQCTAEISLADLATIFFAQFVQEATYKEVSKMVKDALTAIEKPTGDEQSSGCLENQLPAFLEELCHEKEILEKYGHSDCCSQSEEGRHNCFLAHKKPTPASIPLFQVPEPVTSCEAYEEDRETFMNKFIYEIARRHPFLYAPTILLWAARYDKIIPSCCKAENAVECFQTKAATVTKELRESSLLNQHACAVMKNFGTRTFQAITVTKLSQKFTKVNFTEIQKLVLDVAHVHEHCCRGDVLDCLQDGEKIMSYICSQQDTLSNKITECCKLTTLERGQCIIHAENDEKPEGLSPNLNRFLGDRDFNQFSSGEKNIFLASFVHEYSRRHPQLAVSVILRVAKGYQELLEKCFQTENPLECQDKGEEELQKYIQESQALAKRSCGLFQKLGEYYLQNAFLVAYTKKAPQLTSSELMAITRKMAATAATCCQLSEDKLLACGEGAADIIIGHLCIRHEMTPVNPGVGQCCTSSYANRRPCFSSLVVDETYVPPAFSDDKFIFHKDLCQAQGVALQTMKQEFLINLVKQKPQITEEQLEAVIADFSGLLEKCCQGQEQEVCFAEEGQKLISKTRAALGV
notes: also called hAFP; human AFP
- fold higher affinity than AFP to β2M: 100 fold
